Numbering of substitutions follows the chain as printed. In names and notes the source's numbering stands.

Format in all cases: biochemical
Series [1] can be described thus: Activity profile at different temperatures and pH using cellobiose (10 g/L) as substrate. As for the experimental part: β-glucosidase activity was also determined using a cellobiose assay, which used cellobiose as substrate. In a total volume of 100 μL, 25 μL clear media supernatant containing CelA enzyme was added to 10 g/L cellobiose (Fluka Cat. No. 22150, Sigma-Aldrich, Inc., St. Louis, Mo.) in 100 mM sodium phosphate buffer (pH 6-7) or sodium acetate buffer (pH 5-5.5). The reaction was incubated at 45-70° C. for an appropriate time (25 minutes to overnight depending on the enzyme concentration) while shaking. Glucose production was determined using an enzymatic glucose assay (K-GLUC, Megazyme, Ireland). 10 μl of each reaction was added to 190 μl GOPOD reagent (supplied as part of the K-GLUC assay kit). The reaction was incubated at 45° C. for 20 minutes and the absorbance of the solution was measured at 510 nm. The GOPOD reagent contains 50 mM Potassium phosphate buffer pH7.4, 0.011M p-hydroxybenzoic acid, 0.008% w/v sodium azide, glucose oxidase (>12,000 U/L), peroxidase (>650 U/L) and 80 mg/L 4-aminoantipyrine. The glucose oxidase enzyme in the reagent reacts with any glucose present in the sample and produces hydrogen peroxide which then reacts with the 4-aminoantipyrine to produce a quinoneimine dye in quantities proportionate with the amount of glucose present and can be measured spectrophotometrically at 510 nm. Detectable β-glucosidase activity was observed under high throughput screening conditions (i.e., pH 7, 50° C.).
The native CelA activity profile was investigated at different temperatures (40-55° C.) and pH (5.0-8.0) using cellobiose (10 g/L) as a substrate. The experimental and analytical procedures are described in Example 5.
The activity profiles for Variant Nos. 264, 366, 391, 463, and 529 were determined at different temperatures and pH using cellobiose (10 g/L) as a substrate. The experimental and analytical procedures are described in Example 5, incubating the variant with cellobiose at temperatures in the range of 45-80. The results are depicted in FIGS. 7-11. […] The temperature and pH profile for this variant is depicted in FIG. 7. […] The temperature and pH profile for this variant is depicted in FIG. 8. […] The temperature and pH profile for this variant is depicted in FIG. 9. […] (with the pH 6 optimum determined by extrapolation). The temperature and pH profile for this variant is depicted in FIG. 10. […] The temperature and pH profile for this variant is depicted in FIG. 11.

Series [2] in a line: High throughput cellobiose assay: fold improvement in cellobiase activity of CelA variants over a control enzyme (Tables 2A-2D, 3, 5, 6, 7). The note with it: shown by improvement over a chain of controls, of which Variant No. 5 was directly compared to the wildtype.
Series [3] can be described thus: Saccharification of microcrystalline cellulose by Trichoderma reesei whole cellulase supplemented with β-glucosidase. The note with it: 1 g/L TRWC alone or 25% of TRWC substituted with the β-glucosidase; 200 g/L Avicel, 100 g/L xylose, pH5.5, 55° C., 48 hours. An excerpt: FIG. 12 illustrates the impact of supplementing a commercially available Trichoderma reesei whole cellulose (“TRWC”) mixture with a CelA variant of the present invention. Compositions containing TRWC were supplemented with β-glucosdiases CelA Variant No. 264 (“Cel var1”), CelA Variant No. 366 (“Cel var2”), and a commercially available Aspergillus niger β-glucosidase (“ANBG”) in a ratio of 3:1 TRWC to β-glucosidase. The effectiveness of each composition at hydrolyzing microcrystalline cellulose was evaluated as described in Example 15. A plot of glucose and cellobiose concentration (g/L) vs. cellulase composition is depicted. The control composition was TRWC with no added β-glucosidase.
The impact of adding a CelA variant of the present invention to commercially available cellulose mixtures and microcrystalline cellulose, Avicel™, was evaluated. In the test reactions, 1 g/L Trichoderma reesei whole cellulose (“TRWC”, Sigma catalog #C85456-10KU (ATCC 26921)) was used to convert 200 g/L of the microcrystalline cellulose Avicel™ (200 mM Sodium acetate; 100 g/L xylose, pH5.5 and 55° C.). The amount of glucose was measured after 48 hours of reaction. As a comparison, 25% of the TRWC was replaced with a β-glucosidase: Variant No. 264 (“Cel var1”), Variant No. 366 (“Cel var2”), or with the commercially available cellobiase, Aspergillus niger beta-glucosidase (“ANBG”, Sigma catalog #49291-1G). […]

Series [4] can be described thus: Activity profile at different temperatures and pH using cellobiose (10 g/L) as substrate. This is another data set of the same source.
A short description of series [5]: Enzyme stability: residual activity on pNPG after pre-incubation at high temperature and low pH. Conditions: residual activity on pNPG at pH 7, 30° C. How it is done:
Residual activity is determined by exposing the enzyme to stress conditions of elevated temperature for a period of time and then determining the β-glucosidase activity. The β-glucosidase activity of the enzyme exposed to stress conditions (“a”) is compared to that of a control in which the enzyme is not exposed to the stress conditions (“b”), and residual activity is equal to the ratio a/b. Exemplary conditions for determining thermostability are provided in Examples 9 and 13. In one embodiment the enzymes are exposed to stress conditions of 50° C. at pH 5.5 or 55° C. at pH 5.0 or 55° C. at pH 5.5, or 65° C. at pH 5.0 for about 1 hour, and assayed at 30° C., pH 7, for about 0.1 hour.
(§1) A colorimetric pNPG (p-nitrophenyl-(β-D-glucopyranoside)-based assay was used for measuring β-glucosidase activity. In a total volume of 100 μL, 20 μL clear media supernatant containing β-glucosidase enzyme was added to 4 mM pNPG (Sigma-Aldrich, Inc. St. Louis, Mo.) solution in 50 mM sodium phosphate buffer at pH6.5. The reactions were incubated at pH 6.5, 45° C. for 1 hour. The reaction mixture was quenched with 100 μL of 1M sodium carbonate pH 11 solution. The absorbance of the solution was measured at 405 nm to determine the conversion of pNPG to p-nitrophenol. The release of p-nitrophenol (ε=17,700 M−1 cm−1) was measured at 405 nm to calculate β-glucosidase activity. Detectable β-glucosidase activity was observed under high throughput screening conditions (pH 7, 50° C.).
Four CelA variants and wildtype CelA were characterized to determine their stabilities at high temperature (55° C.) and low pH (pH5.5) using the method of Example 5A. The samples containing various CelA variant enzymes were pre-incubated at pH 5.5, 55° C. for 0-6 hrs. The residual enzyme activity after the thermal challenge was measured using pNPG as substrate at pH 7, 30° C. for 1 hr. […] The mutations listed in the table are indicated relative to SEQ ID NO: 4, the wildtype CelA. These sequences included residues GTS prior to the N-terminus of SEQ ID NO: 4 (prepared as described in Example 1). […]

Series [6] can be described thus: pNPG (p-nitrophenyl-β-D-glucopyranoside) assay of β-glucosidase activity. Conditions: media supernatant of shake flask culture. As for the experimental part:
A single microbial colony of Bacillus megaterium containing the vector prepared in Example 1 with the CelA gene was inoculated into 3 ml Luria-Bertani (LB) Broth ([…]) containing 10 μg/mL tetracycline. Cells were grown overnight (at least 16 hrs) in an incubator at 37° C. with shaking at 250 rpm. […]
as §1, with “Detectable β-glucosidase activity was observed under high throughput screening conditions (pH 7, 50° C.).” left out

B1: Variant No. 391 (protein)
chain: SARITQEGAAPAAMLHPEKWPRPATQRLIDPAVEKRVDALLKQLSVEEKVGQVIQGDIGTITPEDLRKYPLGAILAGGDSGPNGDDRAPPKEWLDLADAFYRVSLEKRPGHTPIPVLFGIDAVHGHNNIGSATIFPHNIALGMTRDPELLRRIGEVTAEEMAATGIDWTFAPALSVPRDDRWGRTYEGFSEDPEIVASYSAAYVEGFQGKYGSKDFMAPGRAVACAKHFLADGGTDQGRDQGDARISEDELIRIHNAGYPPAIDAGVLTVMASFSSWQGIKHHGHKQLLTDVLKGQMGFNGFIVGDWNAHDQVPGCTKFNCPTSLIAGLDMYMAADSWKQLYENTLAQVKDGTIPMARLDDAVRRILRVKVLAGLFEKPAPKDRPGLPGLETLGSPEHRAVGREAVRKSLVLLKNDKGTLPLSPKARVLVAGDGADNIGKQSGGWTISWQGTGNRNDEFPGATSILGGIRDAVADAGGSVEFDVAGQYKTKPDVAIVVFGEEPYAEFRGDVETLEYQPDQKQDLTLLKKLKDQGIPVVAVFLSGRPMWVNPELNASDAFVAAWLPGTEGGGVADVLFTDKAGKVQHDFAGKLSYSWPRTAAQTTVNRGDADYNPLFAYGYGLTYKDKSKVGTLPEESGVPAEARQN
modifications: catalytic domain
Regarding B1, in series [1], the “pH of optimum activity” value turned out to be 5.5 pH and the “temperature of optimum activity” value came out at 69 °C. For the same molecule, the “activity (e.g., thermoactivity) over the wildtype A. irakense β-glucosidase, demonstrated indirectly” value in series [2] is reported as “improved activity”.

B2: Variant No. 463 (protein)
chain: B1 chain with T169N, A202P, A272L, Q287R, D311G, E512G
modifications: catalytic domain
As to B2, in series [1], the “temperature of optimum activity” value amounted to 69 °C. Besides, the “pH of optimum activity (determined by extrapolation)” value in series [1] (pH optimum determined by extrapolation) is on record as 6 pH. In series [2], the “activity (e.g., thermoactivity) over the wildtype A. irakense β-glucosidase, demonstrated indirectly” value is listed as “improved activity”.

B3: T2A + A5T + I14M + N79D + G127N + A143M + H145R + V159E + A198S + V207F + F211Y + I222A + S225C + Q508R + A525T-des[A647-L663] (protein)
chain: B1 chain with R3A, A73S, P177V, Y203I
With B3, the “cellobiose and glucose combined yielded in saccharification reaction” value in series [3] is listed as “comparable results”.

B4: CelA wildtype: wildtype Azospirillum irakense β-glucosidase (CelA) (SEQ ID NO: 4) (protein)
chain: STAIAQEGAAPAAILHPEKWPRPATQRLIDPAVEKRVDALLKQLSVEEKVGQVIQGDIGTITPEDLRKYPLGSILAGGNSGPNGDDRAPPKEWLDLADAFYRVSLEKRPGHTPIPVLFGIDAVHGHGNIGSATIFPHNIALGATHDPELLRRIGEVTAVEMAATGIDWTFAPALSVVRDDRWGRTYEGFSEDPEIVAAYSAAIVEGVQGKFGSKDFMAPGRIVASAKHFLADGGTDQGRDQGDARISEDELIRIHNAGYPPAIDAGVLTVMASFSSWQGIKHHGHKQLLTDVLKGQMGFNGFIVGDWNAHDQVPGCTKFNCPTSLIAGLDMYMAADSWKQLYENTLAQVKDGTIPMARLDDAVRRILRVKVLAGLFEKPAPKDRPGLPGLETLGSPEHRAVGREAVRKSLVLLKNDKGTLPLSPKARVLVAGDGADNIGKQSGGWTISWQGTGNRNDEFPGATSILGGIRDAVADAGGSVEFDVAGQYKTKPDVAIVVFGEEPYAEFQGDVETLEYQPDQKQDLALLKKLKDQGIPVVAVFLSGRPMWVNPELNASDAFVAAWLPGTEGGGVADVLFTDKAGKVQHDFAGKLSYSWPRTAAQTTVNRGDADYNPLFAYGYGLTYKDKSKVGTLPEESGVPAEARQNAGIYFRAGALRLPGRFL
On to B4, for which, in series [1], the “pH of optimum activity” value is reported as 6.0 pH and the “temperature of optimum activity” value was determined as 47 °C. Moreover, in series [4], the “CelA activity at pH 4 and 70° C.” value was “detectable”. Also, the “% residual activity after 10 mins @ pH 5.5, 55° C.” value in series [5] (pre-incubation 10 mins at pH 5.5, 55° C., 1 hr) is given as 0%. The “% residual activity after 1 hour @ pH 5.5, 55° C.” value in series [5] (pre-incubation 1 hour at pH 5.5, 55° C.) is 0%. Besides, the “% residual activity after 6 hours @ pH 5.5, 55° C.” value in series [5] (pre-incubation 6 hours at pH 5.5, 55° C., 1 hr) turned out to be 0%. Moreover, the “activity using pNPG as substrate” value in series [6] is listed as “confirmed”.

Values taken from US8357523B2, “Beta-glucosidase variant enzymes and related polynucleotides” (Codexis, Inc., priority 2009, dated 2013).
